Measurements taken from patent US20230365662A1.
Values joined by “and” are separate entries in the source; they are usually repeats but may differ in a detail not shown here. Equal entries are not always repeated.

Target: HRgpA-6H (Porphyromonas gingivalis) (UniProt P28784)
Assay: ELISA, Fab FASEBA supernatant on coated HRgpA-6H (0.0625 ug/ml)

Chain of UniProt P28784 (P28784 228-991 limits assumed): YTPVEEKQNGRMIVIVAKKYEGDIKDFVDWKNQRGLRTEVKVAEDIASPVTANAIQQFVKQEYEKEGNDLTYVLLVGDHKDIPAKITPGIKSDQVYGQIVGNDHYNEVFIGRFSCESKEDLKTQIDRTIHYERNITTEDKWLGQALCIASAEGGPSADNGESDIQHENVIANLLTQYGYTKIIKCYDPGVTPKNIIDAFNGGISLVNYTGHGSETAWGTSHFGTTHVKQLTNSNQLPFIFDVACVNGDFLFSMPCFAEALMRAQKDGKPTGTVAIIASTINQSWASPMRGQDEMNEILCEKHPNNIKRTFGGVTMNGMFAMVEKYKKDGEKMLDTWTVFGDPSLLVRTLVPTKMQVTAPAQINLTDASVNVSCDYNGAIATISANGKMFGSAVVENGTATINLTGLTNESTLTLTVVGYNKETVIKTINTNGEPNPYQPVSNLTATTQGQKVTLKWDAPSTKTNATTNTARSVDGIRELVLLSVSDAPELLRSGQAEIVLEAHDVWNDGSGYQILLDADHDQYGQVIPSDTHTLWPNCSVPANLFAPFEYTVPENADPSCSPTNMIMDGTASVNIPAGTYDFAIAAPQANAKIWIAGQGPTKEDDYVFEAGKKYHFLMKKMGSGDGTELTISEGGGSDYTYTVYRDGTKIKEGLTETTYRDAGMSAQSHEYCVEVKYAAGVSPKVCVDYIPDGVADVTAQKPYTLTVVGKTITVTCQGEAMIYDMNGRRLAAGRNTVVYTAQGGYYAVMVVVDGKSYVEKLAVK

| Binder | OD450nm | Ratio OD(Variant)/OD(WT) |
| --- | --- | --- |
| KB001 parental mouse Fab VH variant N100Q (Fab, V domains shown) VH: EVQLKQSGPGLVAPSQSLSITCTVSGFSLSIYSVHWVRQPPGKGLEWLGMIWGGGSSDYNSALKSRLSISKDNSKSQVFLKMNSLQTDDTAMYYCARNGQFYAMDYWGQGTSVTVSS VL: QIVLTQSPAIMSASLGERVTMTCTASSSVSSSFLHWYQQKPGSSPQLWIYSTSNLASGVPARFSGSGSGTSYSLTISSMEAEDAATYYCHQYHHSPYIYTFGGGTKLEIK | 0.846 | 0.999 |
| KB001 parental mouse Fab VH variant A103V (Fab, V domains shown) VH: EVQLKQSGPGLVAPSQSLSITCTVSGFSLSIYSVHWVRQPPGKGLEWLGMIWGGGSSDYNSALKSRLSISKDNSKSQVFLKMNSLQTDDTAMYYCARNGNFYVMDYWGQGTSVTVSS VL: QIVLTQSPAIMSASLGERVTMTCTASSSVSSSFLHWYQQKPGSSPQLWIYSTSNLASGVPARFSGSGSGTSYSLTISSMEAEDAATYYCHQYHHSPYIYTFGGGTKLEIK | 0.849 and 0.807 | 0.985 and 0.936 |
| KB001 parental mouse Fab VH variant F101W (Fab, V domains shown) VH: EVQLKQSGPGLVAPSQSLSITCTVSGFSLSIYSVHWVRQPPGKGLEWLGMIWGGGSSDYNSALKSRLSISKDNSKSQVFLKMNSLQTDDTAMYYCARNGNWYAMDYWGQGTSVTVSS VL: QIVLTQSPAIMSASLGERVTMTCTASSSVSSSFLHWYQQKPGSSPQLWIYSTSNLASGVPARFSGSGSGTSYSLTISSMEAEDAATYYCHQYHHSPYIYTFGGGTKLEIK | 0.825 and 0.828 and 0.802 | 0.974 and 0.978 and 0.947 |
| KB001 parental mouse Fab VH variant A103G (Fab, V domains shown) VH: EVQLKQSGPGLVAPSQSLSITCTVSGFSLSIYSVHWVRQPPGKGLEWLGMIWGGGSSDYNSALKSRLSISKDNSKSQVFLKMNSLQTDDTAMYYCARNGNFYGMDYWGQGTSVTVSS VL: QIVLTQSPAIMSASLGERVTMTCTASSSVSSSFLHWYQQKPGSSPQLWIYSTSNLASGVPARFSGSGSGTSYSLTISSMEAEDAATYYCHQYHHSPYIYTFGGGTKLEIK | 0.815 and 0.804 and 0.755 | 0.945 and 0.933 and 0.876 |
| KB001 parental mouse Fab VH variant F101S (Fab, V domains shown) VH: EVQLKQSGPGLVAPSQSLSITCTVSGFSLSIYSVHWVRQPPGKGLEWLGMIWGGGSSDYNSALKSRLSISKDNSKSQVFLKMNSLQTDDTAMYYCARNGNSYAMDYWGQGTSVTVSS VL: QIVLTQSPAIMSASLGERVTMTCTASSSVSSSFLHWYQQKPGSSPQLWIYSTSNLASGVPARFSGSGSGTSYSLTISSMEAEDAATYYCHQYHHSPYIYTFGGGTKLEIK | 0.678 and 0.725 | 0.8 and 0.856 |
| KB001 parental mouse Fab VH variant N100Y (Fab, V domains shown) VH: EVQLKQSGPGLVAPSQSLSITCTVSGFSLSIYSVHWVRQPPGKGLEWLGMIWGGGSSDYNSALKSRLSISKDNSKSQVFLKMNSLQTDDTAMYYCARNGYFYAMDYWGQGTSVTVSS VL: QIVLTQSPAIMSASLGERVTMTCTASSSVSSSFLHWYQQKPGSSPQLWIYSTSNLASGVPARFSGSGSGTSYSLTISSMEAEDAATYYCHQYHHSPYIYTFGGGTKLEIK | 0.757 and 0.784 and 0.699 | 0.894 and 0.926 and 0.825 |
| KB001 parental mouse Fab VH variant F101M (Fab, V domains shown) VH: EVQLKQSGPGLVAPSQSLSITCTVSGFSLSIYSVHWVRQPPGKGLEWLGMIWGGGSSDYNSALKSRLSISKDNSKSQVFLKMNSLQTDDTAMYYCARNGNMYAMDYWGQGTSVTVSS VL: QIVLTQSPAIMSASLGERVTMTCTASSSVSSSFLHWYQQKPGSSPQLWIYSTSNLASGVPARFSGSGSGTSYSLTISSMEAEDAATYYCHQYHHSPYIYTFGGGTKLEIK | 0.755 | 0.891 |
| KB001 parental mouse Fab VH variant F101L (Fab, V domains shown) VH: EVQLKQSGPGLVAPSQSLSITCTVSGFSLSIYSVHWVRQPPGKGLEWLGMIWGGGSSDYNSALKSRLSISKDNSKSQVFLKMNSLQTDDTAMYYCARNGNLYAMDYWGQGTSVTVSS VL: QIVLTQSPAIMSASLGERVTMTCTASSSVSSSFLHWYQQKPGSSPQLWIYSTSNLASGVPARFSGSGSGTSYSLTISSMEAEDAATYYCHQYHHSPYIYTFGGGTKLEIK | 0.681 | 0.804 |
